{"source": "a protein production outcome set (Wang et al. 2014)", "test": "label from the status in PepcDB records"}
{"sequence": "MSRNYKEDQTNEVEALDSIYCGDMEILATEPHHKFQIPIATEEYSSEEPEKGLACKLVFTFTATYPDGAPVVEIEEPENFEDMFETRLLEHLQKTIEENLGMEMIFSLVSSAQEWLNERWDEHKFHQEELREQKLREIEEEERKKFEGTRVTVESFLKWKLEFEESTGIAAKREKNNVSKKQTGRELFMCDNTLNDSDIKFLLEAGENIENVKIDETLFQDIGELDLDDDDDEDWVPGADDDDD", "values": [{"measurement": "protein production", "value": "failed"}]}
{"sequence": "MLYRLEKCCTPEIRLLSTYDVCSIAIAAPMRATRSQGVWDFFWETILMAYTTAQLVTAYTNANLGKAPDAATTLTLDAYATQTQTGGLSDAAALTNTLKLVNSTTAVAIQTYQFFTGVAPSAAGLDFLVDSTTNTNDLNDAYYSKFAQENRFINFSINLATGAGAGATAFAAAYTGVSYAQTVATAYDKIIGNAVATAAGVDVAAAVAFLSRQANIDYLTAFVRANTPFTAAADIDLAVKAALIGTILNAATVSGIGGYATATAAMINDLSDGALSTDNAAGVNLFTAYPSSGVSGSTLSLTTGTDTLTGTANNDTFVAGEVAGAATLTVGDTLSGGAGTDVLNWVQAAAVTALPTGVTISGIETMNVTSGAAITLNTSSGVTGLTALNTNTSGAAQTVTAGAGQNLTATTAAQAANNVAVDGGANVTVASTGVTSGTTTVGANSAASGTVSVSVANSSTTTTGAIAVTGGTAVTVAQTAGNAVNTTLTQADVTVTGNSSTTAVTVTQTAAATAGATVAGRVNGAVTITDSAAASATTAGKIATVTLGSFGAATIDSSALTTVNLSGTGTSLGIGRGALTATPTANTLTLNVNGLTTTGAITDSEAAADDGFTTINIAGSTASSTIASLVAADATTLNISGDARVTITSHTAAALTGITVTNSVGATLGAELATGLVFTGGAGADSILLGATTKAIVMGAGDDTVTVSSATLGAGGSVNGGDGTDVLVANVNGSSFSADPAFGGFETLRVAGAAAQGSHNANGFTALQLGATAGATTFTNVAVNVGLTVLAAPTGTTTVTLANATGTSDVFNLTLSSSAALAAGTVALAGVETVNIAATDTNTTAHVDTLTLQATSAKSIVVTGNAGLNLTNTGNTAVTSFDASAVTGTGSAVTFVSANTTVGEVVTIRGGAGADSLTGSATANDTIIGGAGADTLVYTGGTDTFTGGTGADIFDINAIGTSTAFVTITDAAVGDKLDLVGISTNGAIADGAFGAAVTLGAAATLAQYLDAAAAGDGSGTSVAKWFQFGGDTYVVVDSSAGATFVSGADAVIKLTGLVTLTTSAFATEVLTLA", "values": [{"measurement": "protein production", "value": "failed"}]}
{"sequence": "MLAPGMGEWVYKANLFLFGEFAYYYPFFLFILNYVYYKRNYKLANFTRRELFGIGFAFFSSLLLFAVFYPNSGYILELAYAIFSTILGHTGSGIFALLLLLFSLVLLFPKFAKEILKIELDFTYLLKVEQAFKSLLMRVFGGENEKEDVGKSEPIVPKLNILQDSIYGNLQINKKGETNNLEQIIKDSNINASKNSITTAKENFEKLKNQILDETIEIDKQSLKESRSFVHEHSQQVRNFAQKASKMSISLDEDFNFISEEEVDMIPERFLKPKKLEDIKQIDTNKNLDEPSYKRKNIEIPVSNQEVKPKIFTKELELRENLIKKEKLEQEYKAYQNEILENKVKQEIKKLEEYDAINSSDIIEGNKYSFNSPKTIKTETEESDKINENKNLDKADNIFEFAPIVEELNHPYIEPTPIKNINEIVIEEKNTLDFIQNTETKIDNEKTNDQEIKLQKAVLAKEIAINQALLREIEQGEIEKPKDFTLPPLDFLANPKEHKQEINESEIDKKIYNLLEKLRRFKIGGDVISTYVGPVVTTFEFRPSADVKVSRILNLQDDLTMALMAKSIRIQAPIPGKDVVGIEVPNDEIQTIYLREILQSEVFKNAKSPLTIALGKDIVGNAFVTDLKKLPHLLIAGTTGSGKSVGINSMLLSLLYRNSPKTLRLMMIDPKMLEFSIYNDIPHLLTPVITDPKKAVNALSNMVAEMERRYRLMADAKTKNIENYNEKMKELGGEKLPFIVVIIDELADLMMTAGKDVEFYIGRLAQMARASGIHLIVATQRPSVDVVTGLIKANLPSRISYKVGQKIDSKVILDAMGAESLLGRGDCLFTPPGTSSIVRLHAPFASEFEIEKIVDFLKDQQSVEYDESFLKDQQSVGVTTNESFDGEADELYEEAKRVILEDGKTSISYLQRRLKIGYNRSANIIEQLTQNGILSEPDAKGQREIL", "values": [{"measurement": "protein production", "value": "failed"}]}
{"sequence": "MSLSPSARRVQGALETRGFGHLKVVELPASTRTAKEAAQAVGAEVGQIVKSLVFVGEKGAYLFLVSGKNRLDLGKATRLVGGPLRQATPEEVRELTGFAIGGVPPVGHNTPLPAYLDEDLLGYPEVWAAGGTPRALFRATPKELLALTGAQVADLKEG", "values": [{"measurement": "protein production", "value": "not failed"}]}
{"sequence": "MQTVLKKRKKSGYGYIPDIADIRDFSYTPEKSVIAALPPKVDLTPSFQVYDQGRIGSCTANALAAAIQFERIHDKQSPEFIPSRLFIYYNERKIEGHVNYDSGAMIRDGIKVLHKLGVCPEKEWPYGDTPADQKTEEFPPGAPASKKPSDQCYKEARNYKITEYSRVAQDIDHLKACLAAGSPFVFGFSVYNSWVGNNSLPVKIPLPTKNDKLEGGHAVLCVGYDDEIRHFRIRNSWGNNVGENGYFWMPYEYIRNRQLADDFWVIKTVRK", "values": [{"measurement": "protein production", "value": "failed"}]}
{"sequence": "MSLAISITMETFYSLYPAVKHLHLTLIAVSVLFFVVRFVLHLRQSALMGKKVFKVAPHVIDTFLLLSGLVLCFMIKQYPFVDPWLTEKIGAVVAYIALGVIAIKANRNKLFKVFAFLGAIGWLVYAAKLAHFKQAVLLG", "values": [{"measurement": "protein production", "value": "failed"}]}
{"sequence": "EGYEQDFAVLTAEITSKIARVPRLPPDEKKQMVANVEKQLEEARELLEQMDLEVREIPPQSRGMYSNRMRSYKQEMGKLETDFKRSRIA", "values": [{"measurement": "protein production", "value": "not failed"}]}
{"sequence": "DRIYLVAPEDIYLVSVEERQLSIFVDQQVYKMTGTLNSIEQKLPATLFIKTHRSFILNRTKIQEIQPWFNNTLQVILTNGSKVPVSRSYVKEFKEKLGLS", "values": [{"measurement": "protein production", "value": "failed"}]}
{"sequence": "TIADVQSSRDLRNLPINQVGIKDLRFPITLQTAEGIQSTIARLTMTVYLPAEQKGTHMSRFVALMEQHAEALDFAQLRKLTTEMVALLDSRAGKISVSFPFFRKKTAPVSGIRSLLDYDVCLTGEIKDGAYGHSMKVMIPVTSLCPCSKEISQYGAHNQRSHVTVSLTADAEVGIEEVIDYVEAQASCQLYGLLKRPDEKYVTEKAYENPKFVEDMVRDVATSLIADKRIKSFVVESENFESIHNHSAYAYIAYP", "values": [{"measurement": "protein production", "value": "not failed"}]}
{"sequence": "MEKNSLFSQRIRLRHLHTFVAVAQQGTLGRAAETLNLSQPALSKTLNELEQLTGARLFERGRQGAQLTLPGEQFLTHAVRVLDAINTAGRSLHRKEGLNNDVVRVGALPTAALGILPSVIGQFHQQQKETTLQVATMSNPMILAGLKTGEIDIGIGRMSDPELMTGLNYELLFLESLKLVVRPNHPLLQENVTLSRVLEWPVVVSPEGTAPRQHSDALVQSQGCKIPSGCIETLSASLSRQLTVEYDYVWFVPSGAVKDDLRHATLVALPVPGHGAGEPIGILTRVDATFSSGCQLMINAIRKSMPF", "values": [{"measurement": "protein production", "value": "failed"}]}
{"sequence": "MTAREIAEHPFGTPTFTGRSWPLADVRLLAPILASKVVCVGKNYADHIAEMGGRPPADPVIFLKPNTAIIGPNTPIRLPANASPVHFEGELAIVIGRACKDVPAAQAVDNILGYTIGNDVSARDQQQSDGQWTRAKGHDTFCPVGPWIVTDLAPFDPADLELRTVVNGDVKQHARTSLMIHDIGAIVEWISAIMTLLPGDLILTGTPAGVGPIEDGDTVSITIEGIGTLTNPVVRKGKP", "values": [{"measurement": "protein production", "value": "failed"}]}
{"sequence": "MLKVAIAEDDFRVAQIQEEFLLKIKDVKVMGKALNAKETMELLQREEIDLLLLDNYLPDGIGTDLLPQIHAEFPNVDVIMVTAANENHMLEKAIRNGVSNYLIKPVTLEKFVRTIEDYKRKKQLLHNNNEVNQTLIDNFFGISQTQDIKNLPTGVDPLTLQKVKGIIKGFEEGITIEEMGEQMGASRTTARRYLEYLVATNECTVEYTYGIIGRPERKYRIGRGL", "values": [{"measurement": "protein production", "value": "failed"}]}
{"sequence": "SDDINQKVAEQLAQKAQSSSLGYDIVESLTVEVGPRLAGSEQDKVAVDWAIAKLQSLGFDRVYKEPVTVPVWRRGIAKASILSPFPQPLVVTALGGSIATPAQGLSATIVRFDTLQDLQNAEAGSLNDKIAFIDAKTERHRDGKGYGQTASGRSRGAVAAAEKGAVGIIIRSIGTDHDRMAHTGMMRYEEGVTAIPAAAISNPDADLINAMLKRDKEVVISLELGSERRGETTSYNVIAEVKGSTKADEIVLIGAHLDSWDEGTGAIDDGAGVAIVTAAAKHILDLPQKPERTIRVVLYAAEELGLLGGKTYAKEHEAELEKHYIAAESDFGAGPIYQIDWRVADTAHSPVINAMKVAEPLGVAAGNNKASGGPDVSMLPALGVPVASLRQDGSDYFDYHHTPNDTLDKINPEALAQNVAVYAQFAWVMANSKVELRPLPPKE", "values": [{"measurement": "protein production", "value": "not failed"}]}
